Test results reported in patent US20040106773A1 (priority 2003, published 2004).

How the values were obtained:
rat PTH2R [1] = target: rat PTH2R (rat, UniProt P70555 25-546); assay: cell-based or functional assay
rat PTH2R [2] = target: T1, rat PTH2R (Rattus norvegicus, UniProt P70555); assay: cAMP SPA assay for PTH2R activation, rat PTH2R; format: cell-based; details: HEK293 cells expressing rat PTH2R, FIG. 4A
T1 construct: V5-His (appears only in the vector name); expressed in transfected cells
T1 sequence (P70555 25-546): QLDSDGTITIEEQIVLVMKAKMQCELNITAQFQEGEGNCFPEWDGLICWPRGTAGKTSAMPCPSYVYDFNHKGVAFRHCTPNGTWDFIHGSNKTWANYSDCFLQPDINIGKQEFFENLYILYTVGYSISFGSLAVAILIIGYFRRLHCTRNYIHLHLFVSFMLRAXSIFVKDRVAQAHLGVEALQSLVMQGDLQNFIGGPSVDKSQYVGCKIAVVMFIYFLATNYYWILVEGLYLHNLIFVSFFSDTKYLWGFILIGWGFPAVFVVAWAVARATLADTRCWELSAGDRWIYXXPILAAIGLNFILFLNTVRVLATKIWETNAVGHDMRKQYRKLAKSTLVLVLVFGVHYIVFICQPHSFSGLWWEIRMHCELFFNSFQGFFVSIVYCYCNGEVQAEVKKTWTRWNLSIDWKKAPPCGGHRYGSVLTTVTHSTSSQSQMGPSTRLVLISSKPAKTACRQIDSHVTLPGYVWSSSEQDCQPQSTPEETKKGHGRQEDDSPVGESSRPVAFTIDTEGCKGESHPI
Source text: (§1) HEK293 cells were transfected with rat and human PTH2R and cell lines that stably express the receptors were established and evaluated. One cell line was selected for each rat and human PTH2R and used for all the functional assays. Specifically, HEK293 cells were transfected with pCDNA3.1/V5-His-RatPTH2R plasmid DNA and pCDNA3.1-E/Uni-lacZ-HumanPTH2R plasmid DNA using FuGENE 6 transfection reagent (Roche Molecular Biochemicals). Three days after transfection, cells were put under selection with 800 μg/ml geneticin (G418, Gibco BRL). After three weeks of selection, single colonies were cloned using cloning cylinders. Cloned colonies were scaled up to T25 flasks. More than 10 cell lines for each plasmid were tested for function in the cAMP SPA assay.
(§2) HEK293PTH2R cells were seeded in a 96-well poly-D-lysine coated plate at 100,000 cells per well and cultured overnight. After washing with 200 μl of PBS and treating with 100 μl of 300 nM IBMX in assay medium (MEM without phenol red and FBS) at 37° C. for 10 min. The assay medium was then aspirated and the cells were washed with PBS. The cellular of cAMP was measured using cAMP SPA Direct Screening (Amersham/Pharmacia RPA559). Each concentration of ligand was repeated as triplicate.

human PTH2R [3] = target: T2, human PTH2R (Homo sapiens, UniProt P49190); assay: cAMP SPA assay for PTH2R activation, human PTH2R; format: cell-based; details: HEK293 cells expressing human PTH2R, FIG. 4B
T2 construct: expressed in transfected cells
T2 sequence (P49190 25-550): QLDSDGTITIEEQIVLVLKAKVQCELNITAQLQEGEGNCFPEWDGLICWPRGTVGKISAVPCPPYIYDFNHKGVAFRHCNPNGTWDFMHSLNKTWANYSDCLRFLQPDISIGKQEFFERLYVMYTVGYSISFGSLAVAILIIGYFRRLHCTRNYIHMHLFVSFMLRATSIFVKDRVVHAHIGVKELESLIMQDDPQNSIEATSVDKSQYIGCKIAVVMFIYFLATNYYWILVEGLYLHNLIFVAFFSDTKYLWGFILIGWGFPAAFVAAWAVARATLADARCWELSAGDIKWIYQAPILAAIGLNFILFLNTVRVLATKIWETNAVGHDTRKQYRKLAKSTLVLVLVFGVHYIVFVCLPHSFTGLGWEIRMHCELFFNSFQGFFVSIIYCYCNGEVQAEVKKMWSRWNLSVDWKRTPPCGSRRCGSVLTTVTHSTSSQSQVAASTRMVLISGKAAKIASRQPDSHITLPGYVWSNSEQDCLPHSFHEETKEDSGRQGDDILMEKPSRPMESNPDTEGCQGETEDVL
Source text: as §1, §2

rat PTH2R [4] = target: T1, rat PTH2R; assay: Measurement of [Ca2+]i using the FLIPR, rat PTH2R; format: cell-based
Source text: as §1
(§3) HEK293 cells were seeded into […] clear-base 96 well plates (BD Biocoat) coated with poly-D-lysine at a density of 100,000 cells per well in MEM, and cultured overnight.
(§4) Curve-fitting and parameter estimation were carried out using Graph Pad Prism, 3.00 (GraphPad Software Inc., California, U.S.A.).

human PTH2R [5] = target: T2, human PTH2R; assay: Measurement of [Ca2+]i using the FLIPR, human PTH2R; format: cell-based; details: human PTH2R expressing HEK293 cells
Source text: as §1, §3, §4

F-11 cells = details: DRG-like F-11 cells; cited from earlier work
human PTH2R [6] = target: human PTH2R (human, UniProt P49190 25-550); assay: cell-based or functional assay
Sequence of human PTH2R (human, UniProt P49190 25-550) (P49190 25-550): as above

Sequence of rat PTH2R (rat, UniProt P70555 25-546) (P70555 25-546): as the sequence (P70555 25-546) above

Molecule: human PTH (1-34) (from UniProt P01270 32-65) (peptide)
- logEC50, cAMP increase (cAMP SPA assay) in HEK293 cells stably expressing rat PTH2R (rat PTH2R [1]): -9.3
- maximal level of cAMP (pmol/100,000 cells) (rat PTH2R [1]): < 29

Molecule: human PTH(1-34)
- relative potency, cAMP (rat PTH2R [2]): slightly less potent
- relative potency, cAMP (human PTH2R [3]): slightly less potent than the other peptides
- agonist character, [Ca2+]i response (rat PTH2R [4]; rat PTH2R expressing HEK293 cells): little response if any
- agonist character, [Ca2+]i response (human PTH2R [5]): little response

Molecule: bovine tuberoinfundibular peptide of 39 residues [bTIP39]
- effect on cAMP (F-11 cells): increases cAMP

Molecule: rat PTH(1-34)
- maximum response compared to that of human TIP39 (rat PTH2R [4]; rat PTH2R expressing cells, [Ca2+]i FLIPR): ~30%
- maximum response compared to that elicited by human TIP39 (human PTH2R [5]; [Ca2+]i FLIPR): 42±2%

Molecule: rat PTH(1-34) (from UniProt P04089 32-65) (peptide)
- maximal level of cAMP (pmol/100,000 cells) (rat PTH2R [1]): < 29
- maximum [Ca2+]i response compared to that of human TIP39 (rat PTH2R [1]): 30%

Molecule: SLALADDAAFRERARLLAALERRRWLDSYMQKLLLLDAP [mouse tuberoinfundibular peptide of 39 residues]
- logEC50, [Ca2+]i increase (FLIPR) (rat PTH2R [1]): -7.3
- logEC50, cAMP increase (cAMP SPA assay) in HEK293 cells stably expressing rat PTH2R (rat PTH2R [1]): -9.9
- logEC50, [Ca2+]i increase (FLIPR) (human PTH2R [6]): -7.8
- logEC50, cAMP increase (cAMP SPA assay) in HEK293 cells stably expressing human PTH2R (human PTH2R [6]): -9.7
